Tests used:
Assay in all cases: filter binding
[1] = tested on: 80S ribosome, L11 H109E ((yeast)); conditions: poly(U), tRNAPhe in P-site, soluble factors; aminoacylated (Phe); Nitrocellulose filter binding, 30 C, 35 min (A-site) or 40 min (P-site), poly(U)-primed ribosomes; buffer, salt and pH not given; errors are SD
[2] = tested on: 80S ribosome, wild-type L11 ((yeast)); conditions: poly(U), tRNAPhe in P-site, soluble factors; aminoacylated (Phe); Nitrocellulose filter binding, 30 C, 35 min (A-site) or 40 min (P-site), poly(U)-primed ribosomes; buffer, salt and pH not given; errors are SD
[3] = tested on: 80S ribosome, L11 114-116R (Saccharomyces cerevisiae? (yeast)); conditions: aminoacylated (N-acetyl-Phe); Nitrocellulose filter binding, 30 C, 35 min (A-site) or 40 min (P-site), poly(U)-primed ribosomes; buffer, salt and pH not given; errors are SD
[4] = tested on: 80S ribosome, L11 87-90R (Saccharomyces cerevisiae? (yeast)); conditions: aminoacylated (N-acetyl-Phe); Nitrocellulose filter binding, 30 C, 35 min (A-site) or 40 min (P-site), poly(U)-primed ribosomes; buffer, salt and pH not given; errors are SD
[5] = tested on: 80S ribosome, L11 H109E (Saccharomyces cerevisiae? (yeast)); conditions: aminoacylated (N-acetyl-Phe); Nitrocellulose filter binding, 30 C, 35 min (A-site) or 40 min (P-site), poly(U)-primed ribosomes; buffer, salt and pH not given; errors are SD
[6] = tested on: 80S ribosome, L11 H109F (Saccharomyces cerevisiae? (yeast)); conditions: aminoacylated (N-acetyl-Phe); Nitrocellulose filter binding, 30 C, 35 min (A-site) or 40 min (P-site), poly(U)-primed ribosomes; buffer, salt and pH not given; errors are SD
[7] = tested on: 80S ribosome, wild-type L11 (Saccharomyces cerevisiae? (yeast)); conditions: aminoacylated (N-acetyl-Phe); Nitrocellulose filter binding, 30 C, 35 min (A-site) or 40 min (P-site), poly(U)-primed ribosomes; buffer, salt and pH not given; errors are SD

For Phe-tRNAPhe (A-site), the Kd [1] was 176 nM and the Kd [2] was 97.6 nM.

For Ac-Phe-tRNAPhe (P-site), the Kd [3] was 41 nM, the Kd [4] was 122 nM and the Kd [5] was 42.8 nM. For the same substance, the Kd [6] was 99.2 nM and the Kd [7] was 72.3 nM.

Source: article PMC3098278
